Results from patent publication CN115677859A (HEFEI HANKEMAB BIOTECHNOLOGY CO LTD; ANHUI ANKE …, dated 2023).

T1: 猴4-1BB胞外段 (monkey 4-1BB extracellular domain) (monkey (猴), UniProt Q07011 24-186 (human entry))
T1 construct: also called 猴4-1BB抗原
T1 chain: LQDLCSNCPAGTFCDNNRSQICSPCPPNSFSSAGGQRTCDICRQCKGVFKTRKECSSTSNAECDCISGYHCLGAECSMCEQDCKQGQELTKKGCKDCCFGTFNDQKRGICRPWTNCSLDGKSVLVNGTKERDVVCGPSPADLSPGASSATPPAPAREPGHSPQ

B1: 抗人PD-L1/4-1BB双特异性抗体 结构B (anti-4-1BB scFv-(G4S)2-IgG4 Fc-(G4S)3-anti-PD-L1 Fab) (bispecific antibody)
heavy: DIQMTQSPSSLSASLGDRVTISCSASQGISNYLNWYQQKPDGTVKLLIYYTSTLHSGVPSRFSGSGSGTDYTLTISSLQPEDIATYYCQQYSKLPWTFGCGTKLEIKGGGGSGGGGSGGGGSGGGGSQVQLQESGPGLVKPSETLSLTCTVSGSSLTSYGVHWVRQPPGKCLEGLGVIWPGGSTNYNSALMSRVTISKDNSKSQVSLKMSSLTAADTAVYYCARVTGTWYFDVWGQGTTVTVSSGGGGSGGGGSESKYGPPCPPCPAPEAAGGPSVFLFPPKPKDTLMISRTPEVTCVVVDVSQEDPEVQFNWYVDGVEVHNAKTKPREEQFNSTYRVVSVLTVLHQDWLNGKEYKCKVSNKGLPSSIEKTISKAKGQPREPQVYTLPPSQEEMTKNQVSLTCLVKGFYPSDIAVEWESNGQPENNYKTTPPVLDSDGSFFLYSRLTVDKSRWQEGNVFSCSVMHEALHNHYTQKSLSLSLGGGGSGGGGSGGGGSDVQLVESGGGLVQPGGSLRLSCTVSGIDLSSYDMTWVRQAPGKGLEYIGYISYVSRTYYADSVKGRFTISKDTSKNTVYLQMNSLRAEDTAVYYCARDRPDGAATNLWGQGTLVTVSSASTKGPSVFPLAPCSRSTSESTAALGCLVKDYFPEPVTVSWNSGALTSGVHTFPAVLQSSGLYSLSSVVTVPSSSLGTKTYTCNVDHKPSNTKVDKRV
light: DIQMTQSPSTLSASVGDRVTITCQSSQNVYSNNRLSWYQQKPGKAPKLLIYWTSFLASGVPSRFSGSGSGTEFTLTISSLQPDDFATYYCAGGYSGNLYTFGQGTKLEIKRTVAAPSVFIFPPSDEQLKSGTASVVCLLNNFYPREAKVQWKVDNALQSGNSQESVTEQDSKDSTYSLSSTLTLSKADYEKHKVYACEVTHQGLSSPVTKSFNRGEC
notes: Two heavy and two light chains; human IgG4 Fc; also called B结构
B2: 抗人PD-L1/4-1BB双特异性抗体 D3 (结构D, D1的突变体, linker A(EAAAK)4ALE) (bispecific antibody, human IgG4 S228P, kappa, F234A L235A)
heavy: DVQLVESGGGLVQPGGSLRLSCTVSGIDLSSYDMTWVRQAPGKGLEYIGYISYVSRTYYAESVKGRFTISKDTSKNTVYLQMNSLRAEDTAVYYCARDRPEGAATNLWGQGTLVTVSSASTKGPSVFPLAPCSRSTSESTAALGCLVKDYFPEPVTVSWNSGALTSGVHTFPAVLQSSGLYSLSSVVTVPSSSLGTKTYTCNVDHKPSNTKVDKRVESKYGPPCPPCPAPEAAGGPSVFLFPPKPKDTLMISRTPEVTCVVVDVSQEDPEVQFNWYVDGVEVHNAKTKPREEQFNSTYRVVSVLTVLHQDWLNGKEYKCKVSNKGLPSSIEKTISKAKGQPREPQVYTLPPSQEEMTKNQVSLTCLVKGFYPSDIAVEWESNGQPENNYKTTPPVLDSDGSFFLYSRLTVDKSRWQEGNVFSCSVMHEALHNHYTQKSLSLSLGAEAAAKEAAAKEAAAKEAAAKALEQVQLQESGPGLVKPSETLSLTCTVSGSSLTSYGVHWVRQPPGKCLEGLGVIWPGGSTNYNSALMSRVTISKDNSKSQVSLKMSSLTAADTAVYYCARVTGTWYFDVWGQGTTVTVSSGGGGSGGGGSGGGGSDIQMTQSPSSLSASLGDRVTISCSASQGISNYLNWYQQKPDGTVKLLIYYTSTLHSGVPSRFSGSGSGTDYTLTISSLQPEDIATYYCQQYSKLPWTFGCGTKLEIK
light: DIQMTQSPSTLSASVGDRVTITCQSSQNVYSNNRLSWYQQKPGKAPKLLIYWTSFLASGVPSRFSGSGSGTEFTLTISSLQPDDFATYYCAGGYSGNLYTFGQGTKLEIKRTVAAPSVFIFPPSDEQLKSGTASVVCLLNNFYPREAKVQWKVDNALQSGNSQESVTEQDSKDSTYSLSSTLTLSKADYEKHKVYACEVTHQGLSSPVTKSFNRGEC
notes: Anti-PD-L1 IgG4 with an anti-4-1BB scFv at the C-terminus of each heavy chain
B3: 抗人PD-L1/4-1BB双特异性抗体 D6 (结构D, D2的突变体, linker (G4S)3) (bispecific antibody, human IgG4 S228P, kappa, F234A L235A)
heavy: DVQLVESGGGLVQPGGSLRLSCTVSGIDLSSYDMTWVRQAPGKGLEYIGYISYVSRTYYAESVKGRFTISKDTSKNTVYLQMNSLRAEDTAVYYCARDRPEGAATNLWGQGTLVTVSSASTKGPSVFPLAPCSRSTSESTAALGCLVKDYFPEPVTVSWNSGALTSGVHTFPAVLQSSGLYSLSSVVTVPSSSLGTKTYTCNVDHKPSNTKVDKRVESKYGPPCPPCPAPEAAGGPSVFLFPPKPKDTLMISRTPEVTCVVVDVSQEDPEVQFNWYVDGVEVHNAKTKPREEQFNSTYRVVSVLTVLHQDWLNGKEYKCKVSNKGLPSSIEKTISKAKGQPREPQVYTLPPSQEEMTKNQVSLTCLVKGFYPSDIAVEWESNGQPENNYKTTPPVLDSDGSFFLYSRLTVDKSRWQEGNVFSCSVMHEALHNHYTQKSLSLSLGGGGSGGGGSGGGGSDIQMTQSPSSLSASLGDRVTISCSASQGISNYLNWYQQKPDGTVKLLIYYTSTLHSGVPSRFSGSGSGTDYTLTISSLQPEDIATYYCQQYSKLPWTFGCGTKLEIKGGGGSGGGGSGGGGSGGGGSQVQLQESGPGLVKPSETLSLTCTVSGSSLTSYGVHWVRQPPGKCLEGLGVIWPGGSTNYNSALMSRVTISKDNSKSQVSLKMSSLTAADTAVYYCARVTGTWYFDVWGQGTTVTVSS
light: DIQMTQSPSTLSASVGDRVTITCQSSQNVYSNNRLSWYQQKPGKAPKLLIYWTSFLASGVPSRFSGSGSGTEFTLTISSLQPDDFATYYCAGGYSGNLYTFGQGTKLEIKRTVAAPSVFIFPPSDEQLKSGTASVVCLLNNFYPREAKVQWKVDNALQSGNSQESVTEQDSKDSTYSLSSTLTLSKADYEKHKVYACEVTHQGLSSPVTKSFNRGEC
notes: as for B2

What was measured:
[1] = target: T2, 人PD-L1全长, 表达于CHO-K1细胞 (CHO-K1/hPD-L1; CHO-K1/PDL1/TCR) (human, UniProt Q9NZQ7 19-290); test: flow cytometry on CHO-K1/hPD-L1 cells, 4-parameter logistic fit
T2 construct: Full-length human PD-L1 transfected into CHO-K1 cells; also called 细胞表面人PD-L1抗原
T2 sequence (Q9NZQ7 19-290 limits assumed): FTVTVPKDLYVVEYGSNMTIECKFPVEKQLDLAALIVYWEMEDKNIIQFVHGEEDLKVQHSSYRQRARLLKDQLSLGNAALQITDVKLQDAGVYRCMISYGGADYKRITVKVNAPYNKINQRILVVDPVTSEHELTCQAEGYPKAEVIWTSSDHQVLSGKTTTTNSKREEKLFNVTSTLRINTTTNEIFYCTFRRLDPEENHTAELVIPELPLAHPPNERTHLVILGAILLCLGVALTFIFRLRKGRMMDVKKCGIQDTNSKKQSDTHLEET

[2] = target: T3, 人4-1BB胞外段 (human 4-1BB extracellular domain, HEK293-expressed, Example 4) (human, UniProt Q07011 24-186); test: ELISA, human 4-1BB ECD coated, anti-human IgG HRP
T3 construct: also called 人4-1BB抗原; CD137

[3] = target: T4, 人4-1BB胞外段, 带鼠Fc标签 (human 4-1BB extracellular domain with mouse Fc tag, Example 5) (human, UniProt Q07011 24-186); test: bridging ELISA: PD-L1-His coated, bispecific, then 4-1BB-mouse Fc, anti-mouse HRP
T4 construct: also called 抗原人4-1BB; not shown: mouse Fc tag

[4] = target: T5, 人4-1BB全长, 表达于细胞 (CHO-K1/h4-1BB; HEK-293/NFκB-Luci/4-1BB) (human, UniProt Q07011 24-255); test: flow cytometry on CHO-K1/h4-1BB cells
T5 construct: also called 细胞表面人4-1BB抗原
T5 sequence (Q07011 24-255 limits assumed): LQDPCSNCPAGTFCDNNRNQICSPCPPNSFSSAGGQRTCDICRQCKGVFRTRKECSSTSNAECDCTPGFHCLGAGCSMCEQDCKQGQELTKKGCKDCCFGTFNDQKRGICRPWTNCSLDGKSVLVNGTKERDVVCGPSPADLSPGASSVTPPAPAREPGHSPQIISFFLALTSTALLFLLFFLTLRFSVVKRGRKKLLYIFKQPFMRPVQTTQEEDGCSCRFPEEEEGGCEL

[5] = target: T2, 人PD-L1全长, 表达于CHO-K1细胞 (CHO-K1/hPD-L1; …); test: flow cytometry on CHO-K1/hPD-L1 cells, anti-human FITC
[6] = target: T1, 猴4-1BB胞外段 (monkey 4-1BB extracellular …); test: ELISA, monkey 4-1BB ECD coated, anti-human HRP
[7] = target: T6, 猴PD-L1胞外段 (monkey PD-L1 extracellular domain) (monkey (猴), UniProt Q9NZQ7 19-238 (human entry)); test: ELISA, monkey PD-L1 ECD coated, anti-human HRP
T6 construct: also called 猴PD-L1抗原
T6 sequence (Q9NZQ7 other isoform, or with tags, fused parts or gaps): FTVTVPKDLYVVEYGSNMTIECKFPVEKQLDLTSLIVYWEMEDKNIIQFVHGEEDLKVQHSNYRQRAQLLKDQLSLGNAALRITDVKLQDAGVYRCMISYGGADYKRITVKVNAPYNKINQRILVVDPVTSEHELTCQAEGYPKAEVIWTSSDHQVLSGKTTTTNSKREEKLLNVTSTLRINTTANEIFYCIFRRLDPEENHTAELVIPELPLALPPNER

Row | EC50 [1] [nM] | binding result [2] | binding result [3] | binding result [4] | FACS fluorescence signal at 0.308 nM (name of read-out not given) [5] | FACS fluorescence signal at 0.617 nM (name of read-out not given) [5] | FACS fluorescence signal at 1.851 nM (name of read-out not given) [5] | FACS fluorescence signal at 5.555 nM (name of read-out not given) [5] | FACS fluorescence signal at 16.666 nM (name of read-out not given) [5] | FACS fluorescence signal at 50 nM (name of read-out not given) [5] | binding result [6] | binding result [7] | Binder
1 | 5.82 | binds | binds | binds | 617 | 889 | 1450 | 4430 | 8220 | 8490 |  |  | B1
2 | 6.59 |  |  |  | 543 | 708 | 1390 | 3820 | 8710 | 8870 |  |  | B2
3 | 7.6 | binds | binds | binds | 516 | 654 | 1190 | 2950 | 8400 | 8920 | binds | binds | B3
